Consider one molecule from PMC7497679, “Structure-based design, synthesis, and evaluation of the biological activity of novel phosphoroorganic small molecule IAP antagonists” (Investigational New Drugs, 2020).

For the assay, the target named is T1, X-linked inhibitor of apoptosis protein (XIAP) BIR3 domain (human).
T1 construct: Neither the catalogue number, the construct limits nor the tags of the Sino Biological protein are stated; also called XIAP BIR3 protein; source: bought: Sino Biological, Beijing, China
Briefly: fluorescence polarisation; direct binding: two-fold serial dilutions of XIAP BIR3 domain (2.5 µM to 0.0763 nM) incubated 30 min with probe 4 (2 nM); r.t.; phosphate buffer pH 7.5 with γ-globulin 100 µg/mL and NaN3 0.02%; one site - total binding model. The conditions noted are these: both partners purified.

Square brackets hold non-standard residues; d marks the D form. 5(6)‑Fam = 5(6)-carboxyfluorescein; Dpm = not defined here

B1: fluorescent probe H2N-Ala-Val-Pro-Dpm-Ala-Lys(5(6)-Fam)-Lys-NH2 (4) (peptide)
chain: H-AVP[Dpm]AK(5(6)‑Fam)K-NH2
modifications: reading uncertain; also: printed as H2N-Ala-Val-Pro-Dpm-Ala-Lys(5(6)-Fam)-Lys-NH2
As a reminder, the Kd is the constant that tells how readily two partners part at equilibrium. As for B1, the affinity, expressed as Kd, was 0.0499 ± 0.00537 µM.
